Where two headings read alike, the source gives them in different places.
T1: human OX40R extracellular domain fusion protein (CD134-muIg) (human, UniProt P43489)
T1 chain: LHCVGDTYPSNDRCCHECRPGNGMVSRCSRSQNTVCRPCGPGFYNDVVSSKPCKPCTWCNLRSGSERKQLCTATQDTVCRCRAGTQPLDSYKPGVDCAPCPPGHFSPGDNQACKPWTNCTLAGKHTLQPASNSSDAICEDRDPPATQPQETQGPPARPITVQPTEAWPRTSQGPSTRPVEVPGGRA

T2: murine OX40R ECD fusion (mouse, UniProt P47741)
T2 chain: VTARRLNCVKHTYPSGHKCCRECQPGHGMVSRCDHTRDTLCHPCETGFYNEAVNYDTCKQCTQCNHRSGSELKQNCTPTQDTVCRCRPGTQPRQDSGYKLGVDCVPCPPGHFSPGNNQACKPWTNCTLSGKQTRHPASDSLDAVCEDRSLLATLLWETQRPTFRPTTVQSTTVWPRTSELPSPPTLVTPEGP

T3: human OX40R on cells (human, UniProt P43489)
T3 chain: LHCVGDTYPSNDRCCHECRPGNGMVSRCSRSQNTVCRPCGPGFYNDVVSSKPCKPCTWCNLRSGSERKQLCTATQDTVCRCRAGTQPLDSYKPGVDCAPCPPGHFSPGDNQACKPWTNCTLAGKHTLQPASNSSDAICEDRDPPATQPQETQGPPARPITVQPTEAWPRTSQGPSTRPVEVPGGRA

T4: CD271 (NGF receptor) ECD-IgG1 fusion (human, UniProt P08138)
T4 chain: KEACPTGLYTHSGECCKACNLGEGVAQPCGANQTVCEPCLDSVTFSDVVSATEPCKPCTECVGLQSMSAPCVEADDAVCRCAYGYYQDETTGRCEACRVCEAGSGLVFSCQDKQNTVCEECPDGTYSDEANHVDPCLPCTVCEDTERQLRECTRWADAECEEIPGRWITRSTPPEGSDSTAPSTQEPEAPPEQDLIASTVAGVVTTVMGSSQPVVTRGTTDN


Key:
[1] = target: T1, human OX40R extracellular domain fusion …; test: SPR
murine OX40R ECD fusion = target: T2, murine OX40R ECD fusion; test: ELISA
[2] = target: T1, human OX40R extracellular domain fusion …; test: ELISA
[3] = target: T5, CD137 (4-1BB) ECD-IgG1 fusion (human, UniProt Q07011); test: other, up to 700 nM
T5 sequence (Q07011 24-186): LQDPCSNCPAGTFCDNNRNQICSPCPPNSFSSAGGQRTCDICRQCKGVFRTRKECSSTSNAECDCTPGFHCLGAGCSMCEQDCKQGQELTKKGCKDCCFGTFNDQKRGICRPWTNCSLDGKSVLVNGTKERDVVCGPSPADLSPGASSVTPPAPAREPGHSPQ

CD40 ECD-IgG1 fusion [4] = target: T6, CD40 ECD-IgG1 fusion (human, UniProt P25942); test: other, up to 700 nM
T6 sequence (P25942 21-193): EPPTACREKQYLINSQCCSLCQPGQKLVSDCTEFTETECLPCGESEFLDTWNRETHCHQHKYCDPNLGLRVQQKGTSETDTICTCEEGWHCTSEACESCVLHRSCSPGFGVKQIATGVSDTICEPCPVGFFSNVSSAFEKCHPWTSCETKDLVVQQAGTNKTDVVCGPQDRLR

human OX40R on cells [5] = target: T3, human OX40R on cells; test: FACS, human T cells
[6] = target: T4, CD271 (NGF receptor) ECD-IgG1 fusion; test: other, up to 700 nM
human OX40R on cells [7] = target: T3, human OX40R on cells; test: FACS, OX40R+ 300-19 cells
human OX40R on cells [8] = target: T3, human OX40R on cells; test: FACS, CD3/CD28 stimulated T cells
[9] = target: T5, CD137 (4-1BB) ECD-IgG1 fusion; test: other, up to 700 nM; remark: listed apart in the source
[10] = target: T4, CD271 (NGF receptor) ECD-IgG1 fusion; test: other, up to 700 nM
CD40 ECD-IgG1 fusion [11] = target: T6, CD40 ECD-IgG1 fusion; test: other, up to 700 nM; remark: listed apart in the source

Row | Kd [1] | binding result (murine OX40R ECD fusion) | EC50 [2] | binding result [3] | binding result (CD40 ECD-IgG1 fusion [4]) | EC50 (human OX40R on cells [5]) | binding result [6] | EC50 (human OX40R on cells [7]) | EC50 (human OX40R on cells [8]) | binding result [9] | binding result [10] | binding result (CD40 ECD-IgG1 fusion [11]) | Binder
1 | 0.48 nM | no binding | 3.5 nM | no binding | no binding | 0.566 µg/mL | no binding | 1.7 nM | 4 nM | – | – | – | 11D4 (antibody, V domains shown) VH: EVQLVESGGGLVQPGGSLRLSCAASGFTFSSYSMNWVRQAPGKGLEWVSYISSSSSTIDYADSVKGRFTISRDNAKNSLYLQMNSLRDEDTAVYYCARESGWYLFDYWGQGTLVTVSS VL: DIQMTQSPSSLSASVGDRVTITCRASQGISSWLAWYQQKPEKAPKSLIYAASSLQSGVPSRFSGSGSGTDFTLTISSLQPEDFATYYCQQYNSYPPTFGGGTKVEIK
2 | – | – | – | – | – | – | – | – | – | no binding | no binding | no binding | 18D8 (antibody, V domains shown) VH: EVQLVESGGGLVQPGRSLRLSCAASGFTFDDYAMHWVRQAPGKGLEWVSGISWNSGSIGYADSVKGRFTISRDNAKNSLYLQMNSLRAEDTALYYCAKDQSTADYYFYYGMDVWGQGTTVTVSS VL: EIVVTQSPATLSLSPGERATLSCRASQSVSSYLAWYQQKPGQAPRLLIYDASNRATGIPARFSGSGSGTDFTLTISSLEPEDFAVYYCQQRSNWPTFGQGTKVEIK
